B1: Trypanosoma brucei brucei adenine phosphoribosyltransferase 1 (APRT1, Tb927.7.1780) (enzyme, UniProt Q57V32 1-235, looked up)
chain: MSLVEVLPNYFTLSKDSPLRKKFEKVYKWYSPAFSPHDVPRFAEVGNITENPEVMRGIRDFFVDRYKNLQQPITHILGFDSRGFLLGPMIAVELNVPFVLIRKANKIAGVIIKSEPYTKEYAAESEECMTVRFGSFDKNSRVVLIDDVIATGGTMLAGVQLVDACGATLVEVAGILGLTFLKGTQPAHTFAGGRYSNVPFVTLVDETVLSDENCGDPLHHKGSRIISCAEAKKLI
notes: APRT1 of Trypanosoma brucei brucei, Tb927.7.1780, UniProt Q57V32; the ORF, codon optimised for P. pastoris, cloned into a pPICZ vector; tags were removed with TEV protease (tag-less APRT1); also called TbbAPRT1; source: Pichia pastoris strain smPP, purified (Ni-NTA, TEV cleavage, second Ni-NTA)

Tests used:
APRT1 (TbbAPRT1) = target: T1, APRT1 (TbbAPRT1) (Trypanosoma brucei, UniProt Q57V32); assay: coupled myokinase/pyruvate kinase/lactate dehydrogenase assay, NADH at […] nm; type: biochemical; details: read-out: Apparent inhibition parameters^b
T1 construct: gene Tb07.43M14.180; full-length ORF, codon optimized, expressed in Pichia pastoris; His6/mCherry tag removed with TEV protease; homodimer
T1 sequence (Q57V32 1-235): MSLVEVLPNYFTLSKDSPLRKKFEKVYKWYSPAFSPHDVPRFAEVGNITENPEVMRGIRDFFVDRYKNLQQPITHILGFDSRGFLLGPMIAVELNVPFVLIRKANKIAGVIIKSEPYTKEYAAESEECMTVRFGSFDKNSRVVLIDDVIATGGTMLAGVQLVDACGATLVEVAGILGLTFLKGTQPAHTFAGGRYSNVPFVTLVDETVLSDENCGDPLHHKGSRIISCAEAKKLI

[1] = target: the molecule itself; assay: cross-linking; dimethyl suberimidate (DMS) 8.7 mM, 0.2 M triethanolamine pH 8.5, purified APRT at 17.8, 35, 69 or 140 ug mL^-1, RT, 5-8 hours; 12% SDS-PAGE, Coomassie Blue
purified protein [2] = substrate: Nc1ncnc2nc[nH]c12; assay: purified protein; type: biochemical, Trypanosoma brucei; details: 100 mM HEPES pH 7.8, 25 mM MgCl2, room temperature
purified protein [3] = substrate: O=P(O)(O)OC[C@H]1O[C@H](OP(=O)(O)OP(=O)(O)O)[C@H](O)[C@@H]1O; assay: purified protein; type: biochemical, Trypanosoma brucei; details: varied PRPP (10-250 μM) at fixed adenine 1-20 μM, 100 mM HEPES pH 7.8, 25 mM MgCl2, room temperature
[4] = target: the molecule itself; assay: SEC; Superdex 200 Increase 10/300 GL; 200 uL of APRT1 at 13.8 mg mL^-1 or APRT2 at 10.8 mg mL^-1; 50 mM HEPES pH 7.8, 300 mM NaCl, 50 mM L-arginine, 50 mM L-glutamate; column calibrated with standards of 1,350 to 670,000 Da
[5] = target: B1; assay: cell-based or functional assay
[6] = kinetic dissociation constant from free enzyme, varied adenine (1.5-50 μM) at fixed PRPP 25-150 μM

Q: Which Ki (APRT1 (TbbAPRT1)) does the source give for `Nc1ncnc2cc[nH]c12` [9-deazaadenine] here?
A: 156 ± 21 µM

Q: What does the source list for B1?
A: stoichiometry N [1]: 2; Km (purified protein [2]; [6]): 2.2 ± 0.7 µM; kcat (purified protein [2]; [6]): 0.62 ± 0.02 s⁻¹; Km (purified protein [3]): 68 ± 11 µM; kcat (purified protein [3]): 0.61 ± 0.04 s⁻¹; kcat/Km (purified protein [3]): 9000 ± 1600 M⁻¹ s⁻¹

B2: APRT2 (Trypanosoma brucei brucei TREU927) (protein)
chain: MSQYDAILTERHPHHFTLADTHPLAKELHANIFGESDLTHANCAHVYDISSLTEKPALFRKVIEFLKCRYETMGDTGPTHIIGVESRGYIIGAPLAVALGIPFVTARVTKRFPSSFVPEGDDLKYLPMSRSIRNDSIPPRARVLIVDDFIGTGSTMLAALRLADIVAAQVVEVLTVCDVASLGGIKIIRESDDEMFKETPIFTLIHFKLSPREAEEQLEFVNSYITRSRL
notes: full-length ORF, codon optimized, expressed in Pichia pastoris; N- or C-terminal His6/mCherry tag removed with TEV protease; weak dimer
Q: What does the source list for B2?
A: Km (purified protein [2]; adenine 50-500 μM, 1 mM PRPP): 253 ± 4 µM; kcat (purified protein [2]; adenine 50-500 μM, 1 mM PRPP): 0.003 ± 0.0002 s⁻¹; kcat/Km (purified protein [2]; adenine 50-500 μM, 1 mM PRPP): 12 ± 0.8 M⁻¹ s⁻¹

B3: APRT2-Ctag (Trypanosoma brucei brucei putative adenine phosphoribosyltransferase 2, Tb927.7.1790, expressed from pPICZ-Ctag) (natural protein, UniProt Q57V31 1-230, looked up)
chain: MSQYDAILTERHPHHFTLADTHPLAKELHANIFGESDLTHANCAHVYDISSLTEKPALFRKVIEFLKCRYETMGDTGPTHIIGVESRGYIIGAPLAVALGIPFVTARVTKRFPSSFVPEGDDLKYLPMSRSIRNDSIPPRARVLIVDDFIGTGSTMLAALRLADIVAAQVVEVLTVCDVASLGGIKIIRESDDEMFKETPIFTLIHFKLSPREAEEQLEFVNSYITRSRL
notes: APRT2 of Trypanosoma brucei brucei, Tb927.7.1790, UniProt Q57V31; the ORF, codon optimised for P. pastoris, cloned into pPICZ-Ctag; Tags removed with TEV protease; measured native-MS mass 26,637 Da (theoretical 26,647 Da), so residues of the TEV site are likely left at the C-terminus; also called TbbAPRT2; source: Pichia pastoris strain smPP, purified (Ni-NTA, TEV cleavage, second Ni-NTA); not …
Q: For B3, which “stoichiometry N” value [1] is on record?
A: 2

B4: APRT2-Ntag (Trypanosoma brucei brucei putative adenine phosphoribosyltransferase 2, Tb927.7.1790, expressed from pPICZ-Ntag) (natural protein, UniProt Q57V31 1-230, looked up)
chain: MSQYDAILTERHPHHFTLADTHPLAKELHANIFGESDLTHANCAHVYDISSLTEKPALFRKVIEFLKCRYETMGDTGPTHIIGVESRGYIIGAPLAVALGIPFVTARVTKRFPSSFVPEGDDLKYLPMSRSIRNDSIPPRARVLIVDDFIGTGSTMLAALRLADIVAAQVVEVLTVCDVASLGGIKIIRESDDEMFKETPIFTLIHFKLSPREAEEQLEFVNSYITRSRL
notes: APRT2 of Trypanosoma brucei brucei, Tb927.7.1790, UniProt Q57V31; the ORF, codon optimised for P. pastoris, cloned into pPICZ-Ntag; Tags removed with TEV protease; measured native-MS mass 25,860 Da (theoretical 25,853 Da); also called TbbAPRT2; source: Pichia pastoris strain smPP, purified (Ni-NTA, TEV cleavage, second Ni-NTA); not shown: His6, N-terminal, cleaved; mCherry, N-terminal, cleaved
Q: Which “stoichiometry N” value [1] does the source give for B4 here?
A: 2

B5: APRT2 (Trypanosoma brucei brucei putative adenine phosphoribosyltransferase 2, Tb927.7.1790), expressed in P. pastoris, vector not told (natural protein, UniProt Q57V31 1-230, looked up)
chain: MSQYDAILTERHPHHFTLADTHPLAKELHANIFGESDLTHANCAHVYDISSLTEKPALFRKVIEFLKCRYETMGDTGPTHIIGVESRGYIIGAPLAVALGIPFVTARVTKRFPSSFVPEGDDLKYLPMSRSIRNDSIPPRARVLIVDDFIGTGSTMLAALRLADIVAAQVVEVLTVCDVASLGGIKIIRESDDEMFKETPIFTLIHFKLSPREAEEQLEFVNSYITRSRL
notes: APRT2 of Trypanosoma brucei brucei, Tb927.7.1790, UniProt Q57V31; the ORF, codon optimised for P. pastoris, cloned into a pPICZ vector; tags were removed with TEV protease; also called TbbAPRT2; source: Pichia pastoris strain smPP, purified (Ni-NTA, TEV cleavage, second Ni-NTA)
Q: For B5, which “stoichiometry N” value [4] is on record?
A: 2

Q: What about the “fold decrease in AMP formation (APRT activity) of an equimolar mixture pre-incubated 4 hours on ice (100 nM APRT1: 100 nM APRT2) against 200 nM APRT1 alone and 100 nM APRT1 alone” value [5] of the same molecule?
A: 2 fold
